Consider 30 sequences from the nanobody polyreactivity screen of Harvey et al. (2022).

This data set in a line: yeast display, Sf9 membrane polyspecificity reagent, FACS + sequencing; frameworks hold sequencing errors. The essentials: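 A nanobody's polyreactivity label depends on the gate it was sorted from. Yeast display cells were stained with 10% biotinylated, detergent-solubilized Sf9 membrane reagent for 1 hour at 4 °C, enriched on streptavidin microbeads and sorted by FACS. The low and high (top ~1%) gates were set on anti-HA fluorescence for expression and streptavidin fluorescence for reagent binding.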
Consider “QVQLVESGGGLVQEGGSLSLSCAASGLTFTGNAMAWYRQAPGKEREFVAAIRWSAGSTYYADSVKGRFTISRDNAKNTVYLQMNSLKPEDTAVYYCYAALNVSGHYPNDYCGQGTQVTVSS”, for which the “polyreactivity (PSR sort gate)” value was “low polyreactivity”.

As to “QVQLVESGGGLVQEVGSLRISCAASGRIFYVYSMGWYRQAPGKERELVAAITSGGRTDYADSVKGRFTISRDNAKNTVYLQLNSLKPEDTAVYYCAAGGGWNGHRHRWLYGYGYWGQGTQVTVSS”, the “polyreactivity (PSR sort gate)” value is listed as “high polyreactivity”.

On to “QVQLVESGGGLVQGGGSLRLSCAASGLILRKYAMGWYRQAPGKEREFVAAITQTGSRTYYADSVKGRFTISRDNAKNTVYLQMNSLKPEDTAVYYCNAVNYRSSRDSGYWGQGTQVTVSS”, for which the “polyreactivity (PSR sort gate)” value is listed as “high polyreactivity”. To “QVQLVESGGGLVQGGGSLRLSCAASGRTFRYYAMGWYRQAPGKERELVAAITRSGGSTYYADSVKGRFTISRDNAKYTVYLQMNSLKPEDTAVYYCAASRFTSYGIDYDYWAQGTQVTVSS” belongs “high polyreactivity”; to “QVQLVESGGGLVQGGGSLRLSCAASGSTFAVYDMGWYRPAPGKERELVAAITVSGSSTHYADSVKGRFTISRDNAKNTVYLQMNSLKPEDTAVYYWGQGTQVTVSS”, “low polyreactivity”; to “QVQLVESGGGLVQGGGSLRLSCAASGSTFGRYAMGWYRQAPGKEREFVAGITGRGGSTYYADSVKGRFTISRDNAKNTVYLQMNSLKPQDTAVYYCAAGYRVGYLRAGDYWGQGTQVTVSS”, “high polyreactivity”. To “QVQLVESGGGLVQGGGSLRLSCDDSGRNFNAYSRGWYRQATAKERELVAAISSRGGSTYYADSVKGRFTISRDNEMNSVYLKMNSLQPEDSAVYYFAAGIYTATGYGYWGQGTQVTVSS” belongs “high polyreactivity”. With “QVQLVESGGGLVQGGSLRLSCAASGFTFPIYVMGGYRQAPGKERELVASISSVGSTNYADSVKGRFTISRDNAKNTVYLQMNSLKPEDTAVYYCNADAPNSYGGFDYWGQGTQVTVSS”, the “polyreactivity (PSR sort gate)” value is “low polyreactivity”.

Turning to “QVQLVESGGGLVQPEGSLRLSSAASGRTFDYYALGWYRQAPGKERELVAAITWRGVSTYYADSVKGRFTISRDNAKNTVYLQMNSLKPEDTAVYYCAAYSYPYWQKRPYDYWGQGTQVTVSS”, the “polyreactivity (PSR sort gate)” value was “low polyreactivity”. For “QVQLVESGGGLVQPGGSLRLRCAASGFIFWIYAMGWYRQAPGKERELVAAISLSSGSTYYADSVKGRFTISRDNAKNTVYLEMNSLKTEDTAVYYCAARGYSHVASRLYYYWGQGTQVTVSS” the value was “high polyreactivity”; for “QVQLVESGGGLVQPGGSLRLSCAASGATLRSNAMGWSRQAPGKERELVAGISSGGGTYYADSVKGRFTISRDNAKNTVYLQMNSLNTEDTAVYYCAKVVYFGWSVQYYYWGQGTQVNVSS”, “low polyreactivity”; for “QVQLVESGGGLVQPGGSLRLSCAASGFIFSYYAIGWYRQAPGKERELVAAISYRGGSTHYADSVKGRFTISRDNAKNTVYLQMNSLKPEDTAVYYCAADRVRRPSPVGMDYWGQGTQVTVSS”, “high polyreactivity”.

Take “QVQLVESGGGLVQPGGSLRLSCAASGFIFSYYAMGWYRQAPGKERELVAAITQSGGGTYYADSVKGRFTISRDNAKNTVYLQMNSLKPEDTAVYYCAVLYYQTRQVYSGYSRYWLYSSRYDYWGQGTQVTVSS”: the “polyreactivity (PSR sort gate)” value is “high polyreactivity”.

As to “QVQLVESGGGLVQPGGSLRLSCAASGGIFYGYAMGWYRQAPGKERELVAAISSTGGRTYYADSVKGRFTISRDNAKNTVYLQMNSLKPEDTAVYYCAAEDFTRQFEYWGQGTQVTVSS”, the “polyreactivity (PSR sort gate)” value is “low polyreactivity”. For “QVQLVESGGGLVQPGGSLRLSCAASGIIFDVYAMGWYRQAPGKERELVAGISSGGSTYYADSVKGRFTISRDNAKNTVYFQMNSLKPEDTAVYYCNADGGYSYESTDHYGYDYWGQGTQVTVSS” the value was “low polyreactivity”; for “QVQLVESGGGLVQPGGSLRLSCAASGITFRGYAMGWYRQAPGKERELVATISYRGGNTYYADSVKGRFTISRDNAKNTVYLQMNSLKPEDTAVYYCARKYFRTSNLYGYWGQGTQVTVSS”, “high polyreactivity”. For “QVQLVESGGGLVQPGGSLRLSCAASGRIFIVNAMGWYRQAPGKERELVAAISRRGGSTYYADSVKGRFTISRDIAKNTVYLQMNSLKPEDTAVYYCNAVGGRYTGWRYDYWGQGTQVTVSS” the value was “high polyreactivity”; for “QVQLVESGGGLVQPGGSLRLSCAASGRISSKYAMGWYRQAPGKERELVATISSRGGSTYYADSVKGRFTISRDNAKNTVYLQMNSLKPEDTAVYYCNRPTYLHSTSYSYDYWGQGTQVTVSS”, “low polyreactivity”. Turning to “QVQLVESGGGLVQPGGSLRLSCAASGSILKSYAMGWYRQAPGKERELVAAITYRDGSTYYAHSVKGRFTISRDNSKNTVYLQMNSLKPVDTAVYYCAAEPSWWNVFYPGYNYWGQGTQVTVSS”, the “polyreactivity (PSR sort gate)” value is recorded as “high polyreactivity”. To “QVQLVESGGGLVQPGGSLRLSCAASGSTLTLYDMGWYRQAPGKEWEFVAAIRSHGVSTYYADSEKGRFTISRDNAKNTVYLQMNSLQPEDTAVYYCSSVYIPGGRYTYFPYKRYDYWGQGTKVTVSS” belongs “high polyreactivity”. “QVQLVESGGGLVQPGGSLSLSCAASGLTFYSYAMGWSRQAPGKERELVAAITSSGSITYYADSVKGRFTISRDNAKNTVYLQMNSLTPEDTAVYYCAARPYRVRGQRFEGNYCGQGTQVTVSS”: the “polyreactivity (PSR sort gate)” value is on record as “high polyreactivity”. To “QVQLVESGGGLVQPGVSLRLSCAASGRTSSSYTMGWYRQEPRKECELVAAITSGVRTYYADSVKGRFTISRDNAKNTVYLQMKSLKPEDTAVYYCNARYVPYTYCRKYFKPYDYWGLGTQVTVSS” belongs “high polyreactivity”; to “QVQLVESGGGLVQRGCSLRLSCAASGSTFGYYTMGWYRQAPGKERELVSAISYSGGRTFYADSVKGRFTISRDNAKNTVYFQMISLKPEDHAVYYCNTRYIPSYLSHLDYWGQGTQVTVSS”, “high polyreactivity”.

As to “QVQLVESGGGLVQSGASLRLSCAASGRISRFNAMGWYRQAPGKERELVAAISSGGSTHYADSVKGRFTISRDNAKITVYLQMNSLKPEDTAVYYCAASVYRWWRLEAYYYWGQGSQVTVSS”, the “polyreactivity (PSR sort gate)” value was “high polyreactivity”.

Regarding “QVQLVESGGGLVQSGDSLRLSCAASGIILLSYAMGWYIHAPGKERELVAAITSGGGTNYADSVKGRFTISRDNAKNTVYLQMNSLKPEDTAVYYCAVGAYAGLYYYWGQGTQVTVSS”, the “polyreactivity (PSR sort gate)” value is listed as “low polyreactivity”.

For “QVQLVESGGGLVQSGGILRLSCAATGSIFTSDAMGWYRLAPGKEMELVAAITFSGGDTYYADSVKGRFTISRDNAKNTVYLQMNSLNPEDTAVYYCNADPQQVGAYEYWGQGTQVTLSS”, the “polyreactivity (PSR sort gate)” value is “low polyreactivity”. For “QVQLVESGGGLVQSGGSLPLSCAASGRIFSRNAMGWYRQAPGKERELVAAITSGGSTYYADSVKGRFTISRDNAKNTVYLQMNSLKPEDTAVSTVKILRYDYWGQGTQVTVSS” the value was “high polyreactivity”; for “QVQLVESGGGLVQSGGSLRISCAASGGIFKYNAMGWYTQAPGKERELVAAINYSGGRTYYADSVKGRFTISRDNAKNTVYLQMNSLKPEDTAVFYCNALTRGHTGQPYTYDYWGQGNQVTVSS”, “high polyreactivity”; for “QVQLVESGGGLVQSGGSLRLSCAASGFTFASYAMGWYRQAPGKERELVAAIDSDDSTNYADSVKGRFTISRDNAKNTVYLQMNSLKPEDTAVYYCAADEGPYYGIYEYYYWGQGTQVTVSS”, “high polyreactivity”.

“QVQLVESGGGLVQSGGSLRLSCAASGGTFRSYAMGWYIQAPGKERELVYAIRRSGGSTYYADSVKGRFTISRDNTKNTVYLQMNSLKPEDTAVYYCAARGYNSRRIWKYYYWGQGTQVTVTS”: the “polyreactivity (PSR sort gate)” value is reported as “high polyreactivity”.
